Measurements published in patent US20250186597A1, “TARGETED IMMUNE ACTIVATION WITH IL-18 IMMUNOCYTOKINES” (BRIGHT PEAK THERAPEUTICS AG, priority 2023, published 2025).

Molecular target: human IL-18BP-His (human) (UniProt O95998)
Assay: AlphaLISA detection of free IL-18BP

human IL-18BP-His (human), sequence (O95998 31-194): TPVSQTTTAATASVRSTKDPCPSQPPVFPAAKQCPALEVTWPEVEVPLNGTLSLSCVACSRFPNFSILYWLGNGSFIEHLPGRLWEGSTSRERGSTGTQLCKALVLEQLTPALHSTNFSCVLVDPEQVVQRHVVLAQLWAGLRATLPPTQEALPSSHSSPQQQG

Substance: IL-18 polypeptide C142 (Y1M, E6K, V11I, C38A, K53A, T63A, C76A, C127A) (from UniProt Q14116 38-193) (ligand)
- Kd: 2.25 nM

Substance: IL-18 polypeptide C143 (V11I, C38A, K53A, C76A, C127A) (from UniProt Q14116 37-193) (ligand)
- Kd: 8.86 nM

Substance: IL-18 polypeptide C144 (V11I, C38A, K53A, T63A, C76A, C127A) (from UniProt Q14116 37-193) (ligand)
- Kd: 0.66 nM

Substance: IL-18 polypeptide C145 (V11I, C38A, K53A, S55A, C76A, C127A) (from UniProt Q14116 37-193) (ligand)
- Kd: 9.74 nM

Substance: IL-18 polypeptide C146 (SEQ ID NO: 68; V11I, C38A, M51G, K53A, C76A, C127A) (from UniProt Q14116 37-193) (ligand)
- Kd: 373 nM

Substance: IL-18 polypeptide C147 (V11I, C38A, K53A, D54A, C76A, C127A) (from UniProt Q14116 37-193) (ligand)
- Kd: 25.8 nM

Substance: IL-18 polypeptide C148 (F2A, V11I, C38A, K53A, C76A, C127A) (from UniProt Q14116 37-193) (ligand)
- Kd: 57.2 nM

Substance: IL-18 polypeptide C149 (V11I, E31A, C38A, K53A, C76A, C127A) (from UniProt Q14116 37-193) (ligand)
- Kd: 0.64 nM

Substance: IL-18 polypeptide C150 (V11I, T34A, C38A, K53A, C76A, C127A) (from UniProt Q14116 37-193) (ligand)
- Kd: 1.24 nM

Substance: IL-18 polypeptide C151 (V11I, D35A, C38A, K53A, C76A, C127A) (from UniProt Q14116 37-193) (ligand)
- Kd: 2.88 nM

Substance: IL-18 polypeptide C152 (V11I, S36A, C38A, K53A, C76A, C127A) (from UniProt Q14116 37-193) (ligand)
- Kd: 1.12 nM

Substance: IL-18 polypeptide C153 (V11I, D37A, C38A, K53A, C76A, C127A) (from UniProt Q14116 37-193) (ligand)
- Kd: 4.55 nM

Substance: IL-18 polypeptide C154 (V11I, E31A, D37A, C38A, K53A, C76A, C127A) (from UniProt Q14116 37-193) (ligand)
- Kd: 2.12 nM

Substance: IL-18 polypeptide C155 (V11I, C38A, D40A, K53A, C76A, C127A) (from UniProt Q14116 37-193) (ligand)
- Kd: 0.74 nM

Substance: IL-18 polypeptide C156 (V11I, C38A, N41A, K53A, C76A, C127A) (from UniProt Q14116 37-193) (ligand)
- Kd: 18.5 nM

Substance: IL-18 polypeptide C157 (V11I, C38A, K53A, C76A, C127A, D132A) (from UniProt Q14116 37-193) (ligand)
- Kd: 13.7 nM

Substance: IL-18 polypeptide C158 (V11I, C38A, K53A, C76A, G108A, C127A) (from UniProt Q14116 37-193) (ligand)
- Kd: 1.24 nM

Substance: IL-18 polypeptide C159 (V11I, C38A, K53A, C76A, H109A, C127A) (from UniProt Q14116 37-193) (ligand)
- Kd: 0.55 nM

Substance: IL-18 polypeptide C160 (V11I, C38A, K53A, C76A, D110A, C127A) (from UniProt Q14116 37-193) (ligand)
- Kd: 0.71 nM

Substance: IL-18 polypeptide C161 (K8R, V11I, C38A, C76A, Q103E, C127A) (from UniProt Q14116 37-193) (ligand)
- Kd: 0.06 nM

Substance: IL-18 polypeptide C162 (K8E, V11I, C38A, C76A, Q103R, C127A) (from UniProt Q14116 37-193) (ligand)
- Kd: 0.85 nM

Substance: IL-18 polypeptide C163 (V11I, C38A, C76A, Q103K, C127A) (from UniProt Q14116 37-193) (ligand)
- Kd: 0.05 nM

Substance: IL-18 polypeptide C164 (V11I, C38A, S55H, C76A, C127A) (from UniProt Q14116 37-193) (ligand)
- Kd: 0.08 nM

Substance: IL-18 polypeptide C165 (V11I, C38A, S55R, C76A, C127A) (from UniProt Q14116 37-193) (ligand)
- Kd: 0.15 nM
